Experimental data as given in paper PMC4021431, “Identification of glutathione (GSH)-independent glyoxalase III from Schizosaccharomyces pombe” (BMC Evolutionary Biology, 2014).

Tests used:
Test in all cases: DNPH colorimetric glyoxalase III assay, A540
[1] = substrate: CC(=O)C=O; format: biochemical, Schizosaccharomyces pombe; conditions: GSH-independent, 100 mM Na3PO4 pH 6.8, 45 °C
From the text: DNPH colorimetric glyoxalase III assay, A540 on Hsp3101

[2] = substrate: CC(=O)C=O; format: biochemical, Saccharomyces cerevisiae; conditions: GSH-independent, 100 mM Na3PO4 pH 6.8, 45 °C
From the text: DNPH colorimetric glyoxalase III assay, A540 on ScHsp31

[3] = substrate: CC(=O)C=O; format: biochemical, Schizosaccharomyces pombe; conditions: GSH-independent, 100 mM Na3PO4 pH 6.8, 45 °C, MG 0.5-3 mM (below Km)
From the text: DNPH colorimetric glyoxalase III assay, A540 on SpDJ-1

[4] = substrate: CC(=O)C=O; format: biochemical, Schizosaccharomyces pombe; conditions: GSH-independent, 100 mM Na3PO4 pH 6.8, 45 °C; remark: listed apart in the source
From the text: DNPH colorimetric glyoxalase III assay, A540 on Hsp3102

B1: Hsp3101 (Schizosaccharomyces pombe 972h-) (protein)
chain: MASEGKVLLVASSYYGPFYPDGMNTGVHFAELLIPYQVFREAGYEVQLTSETGKCKFDDHSIKKSALGEVERDAFDNKDNEFWYALKDIKPADKINYKEFCIMFIAGGHAAMFDLPHATNLQTLAQQIYASNGVLAAVCHGPVMLPFVDDTKSPEGRSVVYGKKVTAFNSTGELVMGVSSALRERNMQDLNSLFREAGAEFVDPPTPMSDFTQVDGRIVTGVNPMSAKSTAEAAIKVSQSLRKT
notes: full length (244 aa), C-terminal His6 (pET28a), E. coli BL21(DE3), Ni-NTA
- Km [1]: 1400 µM
- kcat [1]: 0.518 s⁻¹
- kcat/Km [1]: 383 M⁻¹ s⁻¹

B2: ScHsp31 (Saccharomyces cerevisiae S288C) (protein)
chain: MAPKKVLLALTSYNDVFYSDGAKTGVFVVEALHPFNTFRKEGFEVDFVSETGKFGWDEHSLAKDFLNGQDETDFKNKDSDFNKTLAKIKTPKEVNADDYQIFFASAGHGTLFDYPKAKDLQDIASEIYANGGVVAAVCHGPAIFDGLTDKKTGRPLIEGKSITGFTDVGETILGVDSILKAKNLATVEDVAKKYGAKYLAPVGPWDDYSITDGRLVTGVNPASAHSTAVRSIDALKN
notes: full length (237 aa), C-terminal His6 (pET28a), E. coli BL21(DE3), Ni-NTA
- Km [2]: 1500 µM
- kcat [2]: 1.25 s⁻¹
- kcat/Km [2]: 850 M⁻¹ s⁻¹

B3: SpDJ-1 (Schizosaccharomyces pombe 972h-) (protein)
chain: MVKVCLFVADGTDEIEFSAPWGIFKRAEIPIDSVYVGENKDRLVKMSRDVEMYANRSYKEIPSADDFAKQYDIAIIPGGGLGAKTLSTTPFVQQVVKEFYKKPNKWIGMICAGTLTAKTSGLPNKQITGHPSVRGQLEEGGYKYLDQPVVLEENLITSQGPGTAMLFGLKLLEQVASKDKYNAVYKSLSMP
notes: full length (191 aa), C-terminal His6 (pET28a, NcoI/XhoI), E. coli BL21(DE3), Ni-NTA
- Km [3]: 10800 µM
- kcat [3]: 1.43 s⁻¹
- kcat/Km [3]: 132 M⁻¹ s⁻¹

B4: SpDJ-1 (Schizosaccharomyces pombe 972h-; H130A) (protein)
chain: MVKVCLFVADGTDEIEFSAPWGIFKRAEIPIDSVYVGENKDRLVKMSRDVEMYANRSYKEIPSADDFAKQYDIAIIPGGGLGAKTLSTTPFVQQVVKEFYKKPNKWIGMICAGTLTAKTSGLPNKQITGAPSVRGQLEEGGYKYLDQPVVLEENLITSQGPGTAMLFGLKLLEQVASKDKYNAVYKSLSMP
notes: as for B3
- Km [3]: 37300 µM
- kcat [3]: 1.09 s⁻¹
- kcat/Km [3]: 30 M⁻¹ s⁻¹

B5: Hsp3102 (Schizosaccharomyces pombe 972h-) (protein)
chain: MSIAKGKNALLVASSYYGPFYPDGKNTGVHFSELLIPYNVFKKAGFNVQFVSENGSYKFDDHSIEESKLGDFERKVFNDKNDDFWTNLNNMKKASDIVGKDYQLLFVAGGHAAMFDLPKATNLQAVAREVFTNGGVLSAVCHGPVLLANVKNPQSVEGKTVVYHKHVTAFNKAGEEKMGVMDELKKRGMKSLNEIFAEAGATFIDPPNPNVNFTQIDGKIVTGVNPQSAKSTAEAAVSAL
notes: full length (240 aa), C-terminal His tag (pESP3), expressed in S. pombe yAS56, Ni-NTA
- Km [4]: 2700 µM
- kcat [4]: 0.967 s⁻¹
- kcat/Km [4]: 350 M⁻¹ s⁻¹
